Measurements from US20250171542A1 (ADEPT THERAPEUTICS, published 2025).

B1: 74A9 (antibody, human IgG1, V domains shown)
VH: QSVEESGGRLVTPGTPLTLTCAVSGFSLSTYALGWVRQAPGKGLEWIGSISIGGATYYASWAKGRFTISKTSTTVDLKIASPTTEDTATYFCARNVDSIYLDAFHTWGPGTLVTVSL
VL: DIVMTQTPASVEAAVGGTVTIKCQASQNIYNNLAWYQQKPGQPPKLLIYRASTLASGVPSRFKGSGSGTEYTLTISDLECDDAATYYCQTYYLTTTTNAFGGGTEVVVK
B2: 57F11 (antibody, human IgG1, V domains shown)
VH: QEHLEESGGGLVQPEGALTLTCTASGFSFSGDYYMSWVRQAPGKGLEWIASIYTGSLNTYYATWAKGRFTISIASSTTVTLQVTSLTAADTATYFCARRTKNGDYGYFDLWGPGTLVTVSS
VL: YDMTQTPASVEVAVGGTVTIKCQASQSINDRLAWYQQKPGQPPKLLIYAASTLASGVPSRFKGSGSGTEFTLTISDLECADAATYYCQQGWTVSSLENAFGGGTEVVAK
B3: 73C8 (antibody, human IgG1, V domains shown)
VH: QEQLEESGGGLVQPEGSLTLTCTVSGFSFSGDYYMSWVRQAPGKGLEWVASIYTGSLNTYYATWAKGRFTISLTSSTTVTLQMTSLTAADTATYFCARRNKNADYGHFDLWGPGTLVTVSS
VL: YDMTQTPASVEVAVGGTVTIKCQASQSINDRLAWYQQKPGQPPKLLIYAASTLASGVPSRFRGSGSGTDFTLTISDLECADAATYYCQQGWTVSSLDNAFGGGTEVVAM
B4: 62E6 (antibody, human IgG1, V domains shown)
VH: QEQLEESGGDLVKPEGSLTLTCTASGFSFSGDYYMSWVRQAPGKGLEWIASIYTGSLNIYYATWAKGRFTISLTSSTTVTLQMTSLTAADTATYFCARRNKNADYGHFDLWGPGTLVTVSS
VL: YDMTQTPASVEVAVGGTVTIKCQASQSINDRLAWYQQKPRQPPKLLIYGASTLASGVPSRFKGSGSGTEFTLTISDLECVDAATYYCQQGWTVSSLDNAFGGGTEVVAK
B5: 69D10 (antibody, human IgG1, V domains shown)
VH: QEQLEESGGGLVQPEGSLTLTCTASGFSFSGDWYMSWVRQAPGKGLEWIASIYSGSLNTYYATWAKGRFTVSLTSSTTVTLQMTSLTAADTATYFCARRNKNADYGHFDLWGPGTLVTVSS
VL: YDMTQTPASVEVAVGGTVTIKCQASQSIGNALAWYQQKPGQPPKLLIYATSTLASGVPSRFKGSGSGTEFTLTISDLECGDAATYYCQQGWTVSSLDNAFGGGTEVVAK
B6: 28B3 (antibody, human IgG1, V domains shown)
VH: QSVEESGGRLVTPGTPLTLSCTASGFSLSSYYMIWVRQAPGKGLEYIGYVYTGSGNTWYASWAKGRFAISKASTTVDLMITSPTTEDTATYFCASGADGVYDWGWDIWGPGTLVTVSL
VL: DIVMTQTPASVEAAVGDTVTIKCQASQSIYSLLAWYQQKPGQRPKLLIAGASNLESGVPSRFSGSGSGTEYTLTISALECADAATYYCQNNYDSGRIYGLAFGGGTEVVVK

What was measured:
[1] = biological target: mouse PD-L1 (Sino Biological, Cat #50010-M08H) (mouse, UniProt Q9EP73 19-238); assay: ELISA
Sequence of mouse PD-L1 (Sino Biological, Cat #50010-M08H) (Q9EP73 19-238 limits assumed, stated change not applied): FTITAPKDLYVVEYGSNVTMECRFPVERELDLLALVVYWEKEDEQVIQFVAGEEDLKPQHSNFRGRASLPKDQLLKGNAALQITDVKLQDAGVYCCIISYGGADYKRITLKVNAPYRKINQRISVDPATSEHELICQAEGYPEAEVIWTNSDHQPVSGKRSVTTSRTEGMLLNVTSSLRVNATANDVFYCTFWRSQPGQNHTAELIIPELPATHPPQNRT

[2] = biological target: T1, rat PD-L1 (Sino Biological, Cat #80450-R08H) (rat, UniProt D4AE25 19-239); assay: ELISA
T1 construct: not shown: The vendor's polyhistidine tag
T1 sequence (D4AE25 entry or part of it R08H R08H limits assumed): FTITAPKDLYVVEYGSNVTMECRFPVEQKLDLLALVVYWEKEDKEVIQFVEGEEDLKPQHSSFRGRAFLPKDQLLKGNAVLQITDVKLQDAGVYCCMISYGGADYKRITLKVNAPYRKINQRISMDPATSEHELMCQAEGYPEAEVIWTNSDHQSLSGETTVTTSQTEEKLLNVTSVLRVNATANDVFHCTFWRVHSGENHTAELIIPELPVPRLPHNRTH

[3] = biological target: T2, canine PD-L1 (Acro Biosystems, Cat #PDL-C52H4) (canine, UniProt E2RKZ5 19-236); assay: ELISA
T2 construct: not shown: The vendor's tag, probably a polyhistidine tag
T2 sequence: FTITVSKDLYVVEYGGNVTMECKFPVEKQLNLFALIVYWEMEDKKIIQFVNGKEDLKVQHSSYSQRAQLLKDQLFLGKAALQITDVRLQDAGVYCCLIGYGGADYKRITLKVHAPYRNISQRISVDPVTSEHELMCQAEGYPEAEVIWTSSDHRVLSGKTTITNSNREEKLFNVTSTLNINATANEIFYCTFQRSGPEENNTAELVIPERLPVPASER

[4] = biological target: T3, CD80 (Sino Biological, Cat #10698-H08H) (UniProt P33681 35-242); assay: ELISA
T3 sequence (looked up): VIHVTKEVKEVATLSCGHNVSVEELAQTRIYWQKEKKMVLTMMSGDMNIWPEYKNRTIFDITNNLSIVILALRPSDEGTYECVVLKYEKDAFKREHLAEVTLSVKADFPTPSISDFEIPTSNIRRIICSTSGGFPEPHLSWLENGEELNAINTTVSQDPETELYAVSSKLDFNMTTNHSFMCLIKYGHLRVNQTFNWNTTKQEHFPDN

[5] = biological target: T4, CD86 (Sino Biological, Cat #10699-H08H) (UniProt P42081 24-245); assay: ELISA
T4 sequence (looked up): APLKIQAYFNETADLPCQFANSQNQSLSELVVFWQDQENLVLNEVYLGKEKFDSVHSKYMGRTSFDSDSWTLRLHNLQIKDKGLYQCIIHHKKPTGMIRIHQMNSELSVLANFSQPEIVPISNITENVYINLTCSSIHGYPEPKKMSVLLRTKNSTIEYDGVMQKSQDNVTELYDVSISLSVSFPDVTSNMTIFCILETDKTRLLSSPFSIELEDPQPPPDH

[6] = biological target: T5, BH-H2 (Sino Biological, Cat #11559-H08H) (UniProt O75144 19-258); assay: ELISA
T5 sequence (looked up): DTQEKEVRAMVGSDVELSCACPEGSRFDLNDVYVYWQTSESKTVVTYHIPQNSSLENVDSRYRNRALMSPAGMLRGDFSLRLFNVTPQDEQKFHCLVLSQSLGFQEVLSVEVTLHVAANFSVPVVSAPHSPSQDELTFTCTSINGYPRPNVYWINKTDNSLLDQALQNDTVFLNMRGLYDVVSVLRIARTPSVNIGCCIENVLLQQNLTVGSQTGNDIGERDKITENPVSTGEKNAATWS

[7] = biological target: T6, B7-H3 (Sino Biological, Cat #11188-H08H) (UniProt Q5ZPR3 29-461); assay: ELISA
T6 sequence (looked up): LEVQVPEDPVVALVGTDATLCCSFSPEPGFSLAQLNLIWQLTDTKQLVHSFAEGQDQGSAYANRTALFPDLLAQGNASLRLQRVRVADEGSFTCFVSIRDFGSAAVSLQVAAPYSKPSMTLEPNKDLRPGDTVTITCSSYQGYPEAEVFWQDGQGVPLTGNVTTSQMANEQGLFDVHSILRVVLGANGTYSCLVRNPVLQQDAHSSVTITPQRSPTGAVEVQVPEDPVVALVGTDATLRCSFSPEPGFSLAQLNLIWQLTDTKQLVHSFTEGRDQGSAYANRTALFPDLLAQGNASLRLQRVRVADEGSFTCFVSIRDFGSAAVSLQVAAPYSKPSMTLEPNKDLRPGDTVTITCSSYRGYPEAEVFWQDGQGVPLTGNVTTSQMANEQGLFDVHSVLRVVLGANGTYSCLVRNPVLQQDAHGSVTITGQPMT

[8] = biological target: T7, PD-L2 (Sino Biological, Cat #10292-H08H) (UniProt Q9BQ51 20-219); assay: ELISA
T7 sequence (looked up): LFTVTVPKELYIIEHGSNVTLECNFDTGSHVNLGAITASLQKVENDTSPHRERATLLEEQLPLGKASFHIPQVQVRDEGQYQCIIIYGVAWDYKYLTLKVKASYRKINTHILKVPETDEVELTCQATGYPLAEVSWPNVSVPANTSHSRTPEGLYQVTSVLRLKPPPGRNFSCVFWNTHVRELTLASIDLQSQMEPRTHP

[9] = biological target: T8, human PD-L1 expressed on cell surface (human, UniProt Q9NZQ7 19-290); assay: cell-based or functional assay
T8 sequence (Q9NZQ7 19-290 limits assumed): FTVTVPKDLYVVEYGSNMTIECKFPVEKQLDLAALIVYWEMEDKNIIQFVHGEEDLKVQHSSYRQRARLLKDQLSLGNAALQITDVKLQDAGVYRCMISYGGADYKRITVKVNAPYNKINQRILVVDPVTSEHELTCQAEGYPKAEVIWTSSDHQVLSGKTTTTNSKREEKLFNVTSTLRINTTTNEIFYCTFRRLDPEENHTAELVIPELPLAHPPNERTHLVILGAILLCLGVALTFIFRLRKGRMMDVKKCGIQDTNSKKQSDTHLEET

[10] = biological target: T8, human PD-L1 expressed on cell surface; assay: flow cytometry, MDA-MB-231-GFP cells
Procedure: Cells were then resuspended in FACS buffer (1×DPBS/1% FBS) at 10⁶/ml concentration. One hundred microliter (100 μl) of cells were aliquoted into a single well in 96 well plates. The antibodies to be tested were serially diluted at 1:3 fold starting at 15 ug/mL and were then added into each well. The antibodies were mixed with cells and the mixtures were incubated on ice for 1 hour. […] After washing with FACS buffer, stained cells were resuspended at diluted […] (Biolegend, Cat #420404, used at 1:100 dilution) and analyzed on Guava 11HT (Luminex). Data was analyzed using Flowjo software.
Anti-HEL isotype control (Biolntron) was used as negative control.

Row | Binder | binding result [1] | binding result [2] | binding result [3] | binding result [4] | binding result [5] | binding result [6] | binding result [7] | binding result [8] | Internalization (%), FACS, 0.25 µg/ml, 2 h [9] [%] | Internalization (%), FACS, 0.25 µg/ml, 4 h [9] [%] | Internalization (%), FACS, 0.5 µg/ml, 2 h [9] [%] | Internalization (%), FACS, 0.5 µg/ml, 4 h [9] [%] | Internalization (%), FACS, 1 µg/ml, 2 h [9] [%] | Internalization (%), FACS, 1 µg/ml, 4 h [9] [%] | Internalization (%), FACS, 2 µg/ml, 2 h [9] [%] | Internalization (%), FACS, 2 µg/ml, 4 h [9] [%] | EC50 [10] [nM]
1 | B1 | no binding | no binding | no binding | no binding | no binding | no binding | no binding | no binding | 11.5 | 11 | 13.2 | 12 | 17.7 | 9.2 | 13.9 | 11.7 | 0.34
2 | B2 | no binding | no binding | no binding | no binding | no binding | no binding | no binding | no binding | 17.9 | 21.3 | 19.7 | 14.7 | 16.7 | 16.8 | 14.5 | 15.4 | 1.24
3 | B3 | no binding | no binding | no binding | no binding | no binding | no binding | no binding | no binding | 22 | 15.6 | 17.8 | 23 | 19.5 | 15.7 | 22.5 | 21.7 | 1.81
4 | B4 | no binding | no binding | no binding | no binding | no binding | no binding | no binding | no binding | 22.3 | 21 | 12.2 | 24 | 16.4 | 17.7 | 16.1 | 17.9 | 2.03
5 | B5 | no binding | no binding | no binding | no binding | no binding | no binding | no binding | no binding | 18.2 | 15.9 | 16.2 | 18 | 15.9 | 18.2 | 17.7 | 21.2 | 2
6 | B6 | no binding | no binding | no binding | no binding | no binding | no binding | no binding | no binding | 20.4 | 17.6 | 12 | 19.9 | 15.3 | 15.5 | 8.3 | 6 | 0.1
